Values of other authors as cited in patent US20210100896A1, “METHODS AND COMPOSITIONS FOR STIMULATING THE IMMUNE SYSTEM” (University of Miami, priority 2017, published 2021).

Tested on: tumor
Details: tumor bearing mice

B1: Flt3L: cytokine that promotes hematopoietic progenitor commitment to the DC lineage (protein, UniProt P49771 27-235, looked up)
Fms-related tyrosine kinase 3 …: TQDCSFQHSPISSDFAVKIRELSDYLLQDYPVTVASNLQDEELCGGLWRLVLAQRWMERLKTVAGSKMQGLLERVNTEIHFVTKCAFQPPPSCLRFVQTNISRLLQETSEQLVALKPWITRQNFSRCLELQCQPDSSTLPPPWSPRPLEATAPTAPQPPLLLLLLLPVGLLLLAAAWCLHWQRTRRRTPRPGEQVPPVPSPQDLLLVEH
intratumoral accumulation of DC and tumor inhibition: enhanced intratumoral accumulation of DC and tumor inhibition
